Our source for the self-cleavage values is the RNAGym collection of RNA variant scans (doi:10.7554/elife.80360).

Sequences and labels used below:
B1: HDV Ribozyme (parent)
chain: GGCCGGCAUGGUCCCAGCCUCCUCGCUGGCGCCGGCUGGGCAACAUUCCGAGGGGACCGUCCCCUCGGUAAUGGCGAAUGGGACCCA

The variants in this series derive from B1. As to the kind of experiment: self-cleavage, relative activity (ratio to wild type); higher = more cleavage; co-transcriptional.
Regarding G54U C64G, the self-cleavage worked out at 0.831. Turning to G54C G73A, the self-cleavage was determined as 0.565. For G54C C66G, the self-cleavage worked out at 0.591. Consider G54C C66U, for which the self-cleavage came to 0.917. G54C C66A: the self-cleavage was 0.814. In the case of G54U G81C, the self-cleavage came out at 0.299.

Consider G54U G81U, for which the self-cleavage was 0.349. Then G54U G81A, with 0.306; and G55A A56U, with 0.926; and G54C G82C, with 0.397.

Turning to G54A G80C, the self-cleavage was 0.0831. As for G54A G80U, the figure is 0.214; as for G54C G68U, 0.616.

For G54C U65C, the self-cleavage was found to be 0.92.

For G54C U65G, the self-cleavage came to 0.8.

As to G54C U65A, the self-cleavage is 0.721. For the variant G54C A56U, the self-cleavage is 1.06. As to G54C A56C, the self-cleavage amounted to 0.864. As to G54U G55C, the self-cleavage was 0.953. With G54C U69C, the self-cleavage is 0.99. As for G54C U69A, the figure is 0.945. Then G54C G81A, with 0.393; and G54C G81C, with 0.196; and G54C G81U, with 0.19. As for G54U A87U, the figure is 0.973. Consider G54U A87C, for which the self-cleavage is 1.06. Then G54U A87G, with 0.933; and G54A C61U, with 1.04; and G54A C61G, with 0.881. G54C G80U: the self-cleavage was determined as 0.206. In the case of G54C G80C, the self-cleavage came out at 0.256. In the case of G54A C84G, the self-cleavage was 0.462. Then G54A C84U, with 0.563; and G54A C84A, with 0.496; and G54U G74A, with 0.601. On to G54U G74U, for which the self-cleavage amounted to 0.421. In the case of G54C G74U, the self-cleavage came out at 0.475. As for G54C C64U, the figure is 0.82; as for G54A G82A, 0.208. Then G54A G82C, with 0.282; and G54U C75U, with 0.189. As for G54U C75A, the self-cleavage was 0.241. For the variant G54A U72A, the self-cleavage came out at 0.707. As for G54A C64A, the figure is 0.453; as for G54A C64U, 0.696; as for G55A A70G, 0.89. Then G55A A78G, with 0.698; and G55A A78U, with 0.201. Then G55A A78C, with 0.0639; and G54U A83C, with 0.386. As to G54U A83G, the self-cleavage came to 0.956. As for G54U A78G, the figure is 0.534; as for G54U A78U, 0.302; as for G54U U60A, 0.946. Then G54U U60C, with 1; and G54C U79G, with 0.475; and G54C U79A, with 0.755. Turning to G54A C58G, the self-cleavage worked out at 1.03. For G54A C66U, the self-cleavage is 0.933. Regarding G54A C66G, the self-cleavage is 0.821. Consider G54A C66A, for which the self-cleavage was 0.634. On to G55A A87C, for which the self-cleavage stood at 1.1.

As for G54C C58G, the self-cleavage came out at 1.04. Then G54C A70U, with 0.81. Then G54C A70C, with 0.755; and G54C A70G, with 1.07; and G54A U69G, with 0.882. On to G54C C61A, for which the self-cleavage came out at 0.926. Then G54C C61U, with 1.01; and G54C A77U, with 0.695. Regarding G54C A77C, the self-cleavage is 0.426. As to G54A U79A, the self-cleavage came out at 0.465. As to G54C C57G, the self-cleavage is 1.05. As to G54C C57A, the self-cleavage is 0.937.

Take G54A C85G: the self-cleavage amounted to 0.892. As for G54U A70U, the figure is 0.997. On to G54C C62U, for which the self-cleavage came out at 0.746. Then G54A C62G, with 1.06.

On to G54A C62A, for which the self-cleavage amounted to 0.917. Then G54A C62U, with 1.05; and G54A G74A, with 0.445. As for G54A G74U, the figure is 0.562; as for G54A G74C, 0.194. As for G54U C63A, the figure is 0.901; as for G54U C63G, 0.749.

On to G54U A71G, for which the self-cleavage was determined as 0.897.

For the variant G54U A71C, the self-cleavage was found to be 0.654. On to G54U A71U, for which the self-cleavage was found to be 0.987. Then G54U U72G, with 0.919; and G54U U72C, with 0.554; and G54U U72A, with 0.614. Then G54U U65G, with 0.782. As for G54U U65C, the figure is 0.969; as for G54C C84A, 0.598; as for G54C C84G, 0.917.

With G54C A83G, the self-cleavage is 0.905.

G54A G76U: the self-cleavage was 0.799. Then G54A G76A, with 0.923. Take G54U A77C: the self-cleavage came out at 0.415. Consider G54A G81C, for which the self-cleavage is 0.26. As for G54A G81A, the figure is 0.511. As for G54C C63U, the figure is 0.774; as for G54C C63G, 0.831. As to G54U C85G, the self-cleavage is 0.888. On to G54C C85A, for which the self-cleavage was 0.831. Regarding G54C C85G, the self-cleavage is 0.724. Then G54C C85U, with 0.892; and G54U G68U, with 0.842; and G54U G68A, with 0.81.

For the variant G54U G68C, the self-cleavage worked out at 0.496.

In the case of G54C G59A, the self-cleavage stood at 0.926. Then G54A G73U, with 0.211.

Turning to G54A G73A, the self-cleavage came to 0.394. Then G54A G73C, with 0.527; and G54A C57A, with 0.818. As for G54A C57U, the figure is 1.02; as for G54U G73U, 0.364. Then G54U G73C, with 0.297; and G54U C66G, with 0.882. On to G54U C66A, for which the self-cleavage is 0.796. As for G54A G59U, the self-cleavage was 1.06. As for G54C C75A, the figure is 0.138; as for G54C C75G, 0.151; as for G54C C75U, 0.358. Regarding G55A, the self-cleavage was found to be 0.996. Turning to G54U U79G, the self-cleavage is 0.266. Then G54A C86A, with 0.988. With G54A C86U, the self-cleavage came out at 0.992. For the variant G54A C86G, the self-cleavage came out at 1.07. Then G55A A83U, with 0.415; and G54A G68A, with 0.895. As for G54A G68U, the figure is 0.641; as for G54C C86U, 0.923; as for G54U G59C, 1.03. Then G54C G67A, with 0.819; and G54C G67C, with 0.627. Turning to G54C G67U, the self-cleavage came out at 0.783.

For the variant G54U G80C, the self-cleavage came to 0.159. For the variant G54U C57G, the self-cleavage was found to be 1.1. As for G54C A71U, the figure is 0.731.

As for G54U C61A, the self-cleavage was determined as 1.04. Then G54U C61G, with 0.889; and G54U G76U, with 1.09; and G54U G76C, with 0.73.

Take G54U G76A: the self-cleavage came out at 0.981. Then G54U C58U, with 0.94; and G54U A56G, with 1.15; and G54U A56C, with 0.861. Turning to G54A U65A, the self-cleavage worked out at 0.267. Then G54A U65G, with 0.466. On to G54A G67C, for which the self-cleavage was determined as 0.591.

Take G54A C63U: the self-cleavage was 1.04. As for G54A C63G, the figure is 0.816.

With G54A G55A, the self-cleavage stood at 1.29. As for G54A G55U, the figure is 0.993; as for G54A C75U, 0.164; as for G54A C75G, 0.185. In the case of G54A C75A, the self-cleavage was found to be 0.211. For G55A A77G, the self-cleavage came out at 0.991. Then G55A A77U, with 0.694; and G54U G67C, with 0.694.

In the case of G54U G67U, the self-cleavage came to 0.774. Consider G54U G82U, for which the self-cleavage turned out to be 0.432. As for G54U G82C, the self-cleavage was found to be 0.237. As for G54C A87U, the figure is 0.901; as for G54C G55U, 1.05; as for G54C G55C, 0.981.
